The text below walks through data of PMC2928781.

What all share (assay): two-hybrid; L40 strain co-transformed with pGAD424 (prey) and pBTM116 (target) constructs; LACZ reporter read by ONPG assay (Miller units); each mutant against the wild-type MSH4 or MSH5 partner; three independent co-transformants
Assay [1] concerns the target Msh5 N182A (S. cerevisiae) (UniProt Q12175).
The target of assay [2] is Msh5 D539A (S. cerevisiae) (UniProt Q12175).
For assay [3], the target named is Msh5 R685W (S. cerevisiae) (UniProt Q12175).
Assay [4] has as its target Msh5 D527A (S. cerevisiae) (UniProt Q12175).
Assay [5] deals with Msh5 D680A (S. cerevisiae) (UniProt Q12175).
The target of assay [6] is Msh5 E45A (S. cerevisiae) (UniProt Q12175).
Assay [7] deals with Msh5 D76A (S. cerevisiae) (UniProt Q12175).
Assay [8] has as its target Msh5 W298A (S. cerevisiae) (UniProt Q12175).
In assay [9] the target is Msh5 (S. cerevisiae) (UniProt Q12175).
The target of assay [10] is Msh5 V488A (S. cerevisiae) (UniProt Q12175).
Assay [11] addresses Msh5 G648A (S. cerevisiae) (UniProt Q12175).
Assay [12] has as its target Msh5 Y661A (S. cerevisiae) (UniProt Q12175).
Assay [13] has as its target Msh5 Y480A (S. cerevisiae) (UniProt Q12175).
The target in assay [14] is Msh5 S416A (S. cerevisiae) (UniProt Q12175).
Assay [15] has as its target Msh5 D433A (S. cerevisiae) (UniProt Q12175).
Assay [16] deals with Msh5 R436A (S. cerevisiae) (UniProt Q12175).
Assay [17] addresses Msh5 D532A (S. cerevisiae) (UniProt Q12175).
Assay [18] addresses Msh5 D250A (S. cerevisiae) (UniProt Q12175).

Msh4, sequence (P40965 whole entry): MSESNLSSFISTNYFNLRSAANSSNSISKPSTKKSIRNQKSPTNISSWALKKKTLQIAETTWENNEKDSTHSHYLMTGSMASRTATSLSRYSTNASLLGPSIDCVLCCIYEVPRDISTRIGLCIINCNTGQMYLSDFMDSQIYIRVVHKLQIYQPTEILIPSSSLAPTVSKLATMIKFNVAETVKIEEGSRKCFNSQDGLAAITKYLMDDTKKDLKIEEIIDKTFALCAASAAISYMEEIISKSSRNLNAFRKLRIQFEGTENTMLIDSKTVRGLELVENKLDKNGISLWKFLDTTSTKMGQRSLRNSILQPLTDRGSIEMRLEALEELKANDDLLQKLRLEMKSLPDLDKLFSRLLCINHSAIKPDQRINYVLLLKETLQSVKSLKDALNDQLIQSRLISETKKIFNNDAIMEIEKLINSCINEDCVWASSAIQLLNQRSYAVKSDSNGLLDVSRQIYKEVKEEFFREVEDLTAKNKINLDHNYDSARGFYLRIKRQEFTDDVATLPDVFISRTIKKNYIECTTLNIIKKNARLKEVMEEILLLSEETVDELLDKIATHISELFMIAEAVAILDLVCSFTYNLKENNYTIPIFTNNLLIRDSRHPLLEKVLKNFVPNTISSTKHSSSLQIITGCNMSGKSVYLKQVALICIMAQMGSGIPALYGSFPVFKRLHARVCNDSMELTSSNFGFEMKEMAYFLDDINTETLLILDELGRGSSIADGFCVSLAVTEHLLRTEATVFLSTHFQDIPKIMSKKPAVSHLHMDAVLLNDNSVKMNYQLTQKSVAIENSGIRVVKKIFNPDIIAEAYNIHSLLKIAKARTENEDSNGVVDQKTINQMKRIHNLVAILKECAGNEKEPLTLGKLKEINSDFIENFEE

“Msh4 (from UniProt P40965 1-878) (natural protein)”: the β-galactosidase activity (two-hybrid) in [1] was determined as 63 Miller units; in assay [2] it was 89 Miller units; in [3] it was 46 Miller units; in [4], 1.9 Miller units; in [5] it was 1.4 Miller units; in [6], 62 Miller units. Further, the β-galactosidase activity (two-hybrid) came out at 1.3 Miller units in assay [7]; 1.4 Miller units in assay [8]; 54 Miller units in assay [9]; 1.4 Miller units in assay [10]; 45 Miller units in [11]; 1.2 Miller units in assay [12]. Further, the β-galactosidase activity (two-hybrid) in assay [13] amounted to 2.2 Miller units; in assay [14], 3 Miller units; in [15] it was 1.4 Miller units; in assay [16], 1.3 Miller units; in assay [17], 3.7 Miller units; in assay [18] it was 6.2 Miller units.
“Msh4 D139A (from UniProt P40965 1-878) (natural protein)” yielded a β-galactosidase activity (two-hybrid) in assay [9] of 1.5 Miller units.
On the same count and under the same terms, with “Msh4 E276A (from UniProt P40965 1-878) (natural protein)” the figure was 70 Miller units; with “Msh4 F491A (from UniProt P40965 1-878) (natural protein)”, 2.5 Miller units; with “Msh4 G639A (from UniProt P40965 1-878) (natural protein)”, 11.6 Miller units.
On the same count and under the same terms, with “Msh4 L493A (from UniProt P40965 1-878) (natural protein)” the figure was 1.6 Miller units; with “Msh4 R456A (from UniProt P40965 1-878) (natural protein)”, 1.9 Miller units.
Same read-out and setting: with “Msh4 R676W (from UniProt P40965 1-878) (natural protein)” the figure was 96 Miller units.
